Results as given in paper PMC3985721.
Values belong to the substance of their own block, whether it stands above or below them.

What was measured:
Experiment in all cases: native MS
[1] = biological target: human soluble guanylate cyclase α subunit catalytic domain, truncated αGC(466–662) (human) (UniProt Q02108)
[2] = biological target: human soluble guanylate cyclase α subunit catalytic domain, αGC(466–690) (human) (UniProt Q02108)
[3] = biological target: human soluble guanylate cyclase β subunit catalytic domain, wild type, βGC(407–626) (UniProt Q02153)
Sequence of UniProt Q02153 (Q02153 whole entry, looked up, the tested form may be a part): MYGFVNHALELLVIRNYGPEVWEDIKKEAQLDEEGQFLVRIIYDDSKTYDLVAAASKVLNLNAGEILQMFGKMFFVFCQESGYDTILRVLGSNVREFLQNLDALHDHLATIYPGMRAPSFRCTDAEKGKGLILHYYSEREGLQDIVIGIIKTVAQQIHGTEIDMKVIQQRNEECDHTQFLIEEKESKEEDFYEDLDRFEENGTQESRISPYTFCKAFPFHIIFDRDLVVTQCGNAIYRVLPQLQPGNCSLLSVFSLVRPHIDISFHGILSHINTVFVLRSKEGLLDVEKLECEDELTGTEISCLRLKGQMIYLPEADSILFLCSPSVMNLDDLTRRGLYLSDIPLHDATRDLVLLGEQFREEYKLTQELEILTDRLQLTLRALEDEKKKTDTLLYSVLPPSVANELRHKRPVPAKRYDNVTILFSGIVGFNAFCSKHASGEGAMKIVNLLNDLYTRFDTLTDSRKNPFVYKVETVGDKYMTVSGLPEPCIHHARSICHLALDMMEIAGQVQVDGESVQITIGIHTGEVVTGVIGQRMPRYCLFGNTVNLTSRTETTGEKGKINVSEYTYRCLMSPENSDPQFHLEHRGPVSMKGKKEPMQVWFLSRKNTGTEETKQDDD

- stoichiometry N [1]: 2
Substance: human soluble guanylate cyclase α subunit catalytic domain, truncated αGC(466–662) (from UniProt Q02108 466-662) (domain or fragment)

Substance: human soluble guanylate cyclase α subunit catalytic domain, αGC(466–690) (from UniProt Q02108 466-690) (domain or fragment)
- stoichiometry N [2]: 2

Substance: human soluble guanylate cyclase α subunit catalytic domain, shorter construct αGC661 (residues 466–661)
- relative abundance of the heterodimer (%) [3]: 82.5%
